Source: PMC4109796

Biological target: STAT3 (UniProt P40763)
Experiment: co-immunoprecipitation, immunoblot
Conditions: reference: wild-type EZH2; sites S21

EZH2 (from UniProt Q15910) EZH2 S21A
binding against the reference: lost
